Reference: US20210261626A1 (DONALDSON, published 2021)

Molecular target: human serum albumin (human, UniProt P02768 25-609)
Experiment: phase separation pull-down with 0.6 M NaCl and centrifugation, supernatant and pellet on SDS-PAGE

Sequence of human serum albumin (P02768 25-609 limits assumed): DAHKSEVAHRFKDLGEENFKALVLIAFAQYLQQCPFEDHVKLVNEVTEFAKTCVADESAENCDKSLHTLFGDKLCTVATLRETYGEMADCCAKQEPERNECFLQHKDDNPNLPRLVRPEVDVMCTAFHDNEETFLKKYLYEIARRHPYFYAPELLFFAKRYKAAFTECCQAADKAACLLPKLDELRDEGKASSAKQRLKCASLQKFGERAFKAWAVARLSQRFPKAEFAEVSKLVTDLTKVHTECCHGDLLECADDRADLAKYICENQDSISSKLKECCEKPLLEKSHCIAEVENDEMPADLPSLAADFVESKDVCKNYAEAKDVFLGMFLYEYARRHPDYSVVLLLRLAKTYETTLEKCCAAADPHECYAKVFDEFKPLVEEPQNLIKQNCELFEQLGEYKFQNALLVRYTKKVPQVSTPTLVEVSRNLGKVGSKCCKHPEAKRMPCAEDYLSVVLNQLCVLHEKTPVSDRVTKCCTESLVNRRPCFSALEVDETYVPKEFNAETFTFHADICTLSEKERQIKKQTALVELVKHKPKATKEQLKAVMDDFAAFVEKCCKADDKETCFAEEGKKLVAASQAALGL

B1: ELP1,80-CapG (designed binder)
chain: MSKGPGVGVPGLGVPGVGVPGLGVPGVGVPGVGVPGLGVPGVGVPGLGVPGVGVPVGVPGLGVPGVGVPGLGVPGVGVPGVGVPGLGVPGVGVPGLGVPGVGVPVGVPGLGVPGVGVPGLGVPGVGVPGVGVPGLGVPGVGVPGLGVPGVGVPVGVPGLGVPGVGVPGLGVPGVGVPGVGVPGLGVPGVGVPGLGVPGVGVPVGVPGLGVPGVGVPGLGVPGVGVPGVGVPGLGVPGVGVPGLGVPGVGVPVGVPGLGVPGVGVPGLGVPGVGVPGVGVPGLGVPGVGVPGLGVPGVGVPVGVPGLGVPGVGVPGLGVPGVGVPGVGVPGLGVPGVGVPGLGVPGVGVPVGVPGLGVPGVGVPGLGVPGVGVPGVGVPGLGVPGVGVPGLGVPGVGVPGTYKLILNGKTLKGETTTEAVDAATAEKVFKQYANDNGVDGEWTYDDATKTFTVTEG
notes: Expressed in E. coli; also called fusion comprised of an optimal ELP and a Protein G domain
  binding result: no binding
